Biological target: human Nudt16 protein (human) (UniProt Q96DE0)
Test: cross-linking

Sequence of human Nudt16 protein (Q96DE0 whole entry): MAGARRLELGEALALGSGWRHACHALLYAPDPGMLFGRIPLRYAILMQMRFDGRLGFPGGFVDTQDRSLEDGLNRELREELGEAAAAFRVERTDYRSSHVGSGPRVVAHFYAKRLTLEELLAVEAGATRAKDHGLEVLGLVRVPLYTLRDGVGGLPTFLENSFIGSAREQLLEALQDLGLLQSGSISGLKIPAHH

stoichiometry N: 2
Substance: human Nudt16 protein (from UniProt Q96DE0 1-195) (enzyme)

Source: PMC2566886
